T1: CD25 on CD25+ cells (SUDHL-1, HEK IL-2 reporter cells, primary human regulatory T cells) (human, UniProt P01589 22-272)
T1 construct: whole, on cells; also called IL-2Ralpha
T1 sequence (looked up): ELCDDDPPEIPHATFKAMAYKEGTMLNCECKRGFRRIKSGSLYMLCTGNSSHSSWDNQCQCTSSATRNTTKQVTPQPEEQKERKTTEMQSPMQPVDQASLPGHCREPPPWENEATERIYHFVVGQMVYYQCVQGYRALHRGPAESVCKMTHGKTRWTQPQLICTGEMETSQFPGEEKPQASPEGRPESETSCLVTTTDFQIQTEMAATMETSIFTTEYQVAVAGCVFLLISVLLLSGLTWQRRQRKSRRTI

B1: AH05259 (human IgG1 reformatted) (antibody, V domains shown)
VH: QVQLQQSGAELVRPGVSVKISCKGSGYTFTDYAMHWVKQSHAKSLEWIGVISTYSGDVSYNQKFKGKATMTVDKSSSTAYMELARLTSEDSAIYYCARGVTFDSWGQGTSLTVSS
VL: DIQMTQTPASLSASVGETVTITCRASENIYSFLEWFQQKQGKSPQLLVYNAKTLAEGVPSRFSVSGSGTQFSLKINSLQPEDFGSYYCQHHYGIPYTFGGGTKLEIK
B2: D36 (human IgG1 reformatted) (antibody, V domains shown)
VH: QVQLQQPGAELVRPGVSLKISCKGSGYTFTDYAMHWVRQSHAKSLEWIGVISTYSGDALYNQKFKGKATMTVDKSSSTAYLELARLTSEDSAIYYCARGVTFDYWGQGTTLTVSS
VL: DVVMTQSPASLSASVGETVTITCRASENSYSYLEWYQQKQGKSPQLLVYNAKTLAEGVPSRFSGSGSGTQFSLKINSLQPEDFGTYYCQHHYGTPYTFGGGTKLEMK
B3: D5 (human IgG1 reformatted) (antibody, V domains shown)
VH: QVQLQQSGAELVRPGTSVKISCKASGYTFTNYWLGWVKQRPGHGLEWIGDIYPGGGYTNYNEKFKGKATLTADTSSSTAYMQLSSLTSEDSAVYFCARVTPASWGQGTSLTVSS
VL: DIVMTQSQKFMSTSVGDRVSVTCKASQNVGTNVAWYQQKPGQSPKALIYSASYRYSGVPDRFTGSGSGTDFTLTISNVQSEDLAEYFCQQYNSYPYTFGGGTKLEMK
B4: AH05274 (human IgG1 reformatted) (antibody, V domains shown)
VH: QVQLQQSGAELVRPGTSVKISCKASGYTFTNYWLGWIKQRPGHGLEWIGDIYPGGGYTNYNEKFKGKATLTADTSSSTAYMQLSSLTSEDSAVYFCARVTPASWGQGTSLTVSS
VL: DIQMTQSQKFMSTSVGDRVSVTCKASQNVGTNVAWYQQKPGQSPKALIYSASYRYSGVPDRFTGSGSGTDFTLTISNVQSEDLAEYFCQQYNSYPYTFGGGTKLEIK
B5: BP003-T2P1C4 (human IgG1 reformatted) (antibody, V domains shown)
VH: QVQLQQSGAELVRPGTSVKISCKASGYTFTNYWLGWVKQRPGHGLEWIGDIYPGGGYTNYNEKFKGKATLTADTSSSTAYMQLSSLTSEDSAVYFCARVTPASWGQGTTVTVSS
VL: DIQMTQSQKFMSASVGDRVSVTCKASQNVGTNVAWYQQKPGQSPKALIYSASYRYSGVPDRFTGSGSGTDFTLTISNVQSEDLAEYFCQQYNSYPYTFGGGTKLEMK
B6: BP003-T2P1D10 (human IgG1 reformatted) (antibody, V domains shown)
VH: QIQLQQPGAELVRPGTSVKISCKASGYTFTNYWLGWVKQRPGHGLEWIGDIYPGGGYTNYNEKFKGKATLTADTSSSTAYMQLSSLTSEDSAVYFCARVTPASWGQGTSLTVSS
VL: DIVITQSQKFMSTSVGDRVSVTCKASQNVGTNVAWYQQKPGQSPKALIYSASYRYSGVPDRLTGSGSGTDFTLTISNVQSEDLAEYFCQQYNRYPYTFGGGTKLEIK
B7: D17 (human IgG1 reformatted) (antibody, V domains shown)
VH: QIQLQQSGAELVRPGTSVKISCKASGYTFTNYWLGWVKQRPGHGLEWIGDIYPGGGYTNYNEKFKGKATLTADTSSSTAYMQLSSLTSEDSAVYFCARVTPASWGQGTTLTVSA
VL: DILLTQSQKFMSTSVGDRVSVTCKASQNVGTNVAWYQQKPGQSPKALIYSASYRYSGVPDRFTGSGSGTDFTLTISNVQSEDLAEYFCQQYNSYPLTFGGGTKLEIK
B8: AH05256 (human IgG1 reformatted) (antibody, V domains shown)
VH: QVQLQQPGAELAKPGASVKMSCKASGYTFTRYWIHWVKQRPGQDLEWIGYINPRTDYTEYNQKFKDKATLTADKSSSTAYMQLSSLTSDDSAVYYCARHGYFDYWGQGTTLTVSS
VL: DIQMTQTTSSLSASLGDRVTISCRASQDISNYLNWYQQKPDGTVKLLIYHTSRLQSGVPSRFTGSGSGTDYSLTISNLEQEDIATYFCQQSNSLPPTFGGGTKLEIK
B9: AH04524 (human IgG1 reformatted) (antibody, V domains shown)
VH: QIQLQQSGAELVRPGTSVKMSCKAAGYTFTNYWIGWVKQRPGHGLEWIGDIHPGGDYSNYNEKFKGKATLTADTSSSTAYMSLSSLTSEDSAIYYCTSRNFAYWGQGTLVTVSA
VL: DIVMTQSQKFMSTSVGDRVSVTCKASQNVGTNVAWYQQKPGQSPKALIYSASYRYSGVPDRFTGSGSGTDFTLTISNVQSEDLAEYFCQQYNSYPYTFGGGTKLEIK
notes: also called AH4524
B10: AH04501 (human IgG1 reformatted) (antibody, V domains shown)
VH: QVQLQQPGAELVRPGTSVKMSCKAAGYTFTNYWIGWVKQRPGHGLEWIGDIHPGGDYSNYNEKFKGKATLTADTSSSTAYMNLSSLTSEDSAIYYCTSRNFAYWGQGTLVTVSA
VL: DVVMTQTQKFTSTSVGDRVSVTCKASQNVGTNVAWYQQKPGQSPKALIYSASYRYSGVPDRFTGSGSGTDFTLTISNVQSEDLAEYFCQQYNSYPYTFGGGTKLEIK
notes: also called AH4501
B11: AH04502 (human IgG1 reformatted) (antibody, V domains shown)
VH: QIQLQQSGAELVRPGTSVKMSCKAAGYTFTNYWIGWVKQRPGHGLEWIGDIHPGGGYTNYNEKFKGKATLTADTSSSTADMQLSSLTSEDSAIYYCTSRNFAYWGQGTLVTVSA
VL: DIVMTQSQKFMSTSVGDRVSVTCKASQNVGINVAWYQQKPGQSPKALIYSASYRYSGVPDRFTGSGSGTDFTLTISNVQSEDLAEYFCQQYNSYPYTFGGGTKLEIK
notes: also called AH4502
B12: AH04503 (human IgG1 reformatted) (antibody, V domains shown)
VH: QVQLQQPGAELVRPGTSVKMSCKAAGYTFSNYWIGWVKQRPGHGLEWIGDIHPGGGYINYNEKFTGKATLTADTSSSTAYMQLSSLTSEDSAIYYCVSRNFANWGQGTLVTVSA
VL: DIQMTQSQKFMSTSVGDRVSVTCKASQNVGTNVAWYQQKPGQSPKALIYSASYRYSGVPDRFTGSGSGTDFTLTISNVQSEDLAEYFCQQYNSYPWTFGGGTKLEIK
notes: also called AH4503
B13: AH04505 (human IgG1 reformatted) (antibody, V domains shown)
VH: DVQLQQSGAELVRPGTSVKMSCKAAGYTFTNYWIGWVKQRPGHGLEWIGDIHPGGGYTNYNEKFKGKATLTADTSSSTAYMQLSSLTSEGSAIYYCTSRNFAYWGQGTLVTVSA
VL: DTTVTQSQKFMSTSVGDRVSVTCKASQNVGTNVAWYQQKPGQSPKALIYSASYRYSGVPDRFTGSGSGTDFTLTISNVQSEDLAEYFCQQYNSYPYTFGGGTKLEMK
notes: also called AH4505
B14: AH04507 (human IgG1 reformatted) (antibody, V domains shown)
VH: QVQLQQSGAELVRPGTSVKMSCKAAGYTFTNYWIGWVKQRPGHGLEWIGDIHPGGGYIDYNEKFTGKATLTADTSSSTAYMQLSSLTSEDSAIYYCVSRNFAKWGQGTLVTVSA
VL: DTTVTQSQKFMSTSVGDRVSVTCKASQNVGTNVAWYQQKPGQSPKALIYSASYRYSGVPDRFTGSGSGTDFTLTISNVQSEDLAEYFCQQYNSYPYTFGGGTKLEIK
B15: AH04511 (human IgG1 reformatted) (antibody, V domains shown)
VH: QIQLQQSGAELVRPGTSVKMSCKAAGYTFSNYWIGWVKQRPGHGLEWIGDIHPGGGYINYNEKFTGKATLTADTSSSTAYMQLSSLTSEDSAIYYCVSRNFANWGQGTLVTVSA
VL: DIVMSQSQKFMSTSVGDRVSVTCKASQNVGTNVAWYQQKPGQSPKALIYSASYRYSGVPDRFTGSGSGTDFTLTISNVQSEDLAEYFCQQYNSYPYTFGGGTKLEIK
notes: also called AH4511
B16: AH04518 (human IgG1 reformatted) (antibody, V domains shown)
VH: QVQLQQSGAELVRPGTSVKMSCKAAGYTFTNYWIGWVKQRPGHDLEWIGDIHPGGDYSNYNEKFKGKATLTADTSSSTAYMNLSSLTSEDSAIYYCTSRNFAYWGQGTLVTVSA
VL: DILLTQSQKFMSTSVGDRVSVTCKASQNVGTNVAWYQQKPGQSPKALIYSASYRYSGVPDRFTGSGSGTDFTLTISNVQSEDLAEYFCQQYNSYPYTFGGGTKLEIK
notes: also called AH4518
B17: AH04522 (human IgG1 reformatted) (antibody, V domains shown)
VH: QIQLQQSGAELVRPGTSVKMSCKAAGYTFTNYWIGWVKQRPGHGLEWIGDIHPGGGYTNYNEKFKGKATLTADTSSSTAYMQLSSLTSEDSAIYYCTSRNFAYWGQGTLVTVSA
VL: DTTVTQSQKFMSTSVGDRVSVTCKAGQNVGTNVAWYQQKPGQSPKALIYSASYRYSGVPDRFTGSGSGTDFTLTISNVQSEDLAEYFCQQYNSYPYTFGGGTKLEIK
B18: AH04523 (human IgG1 reformatted) (antibody, V domains shown)
VH: QIQLQQSGAELVRPGTSVKMSCKAAGYTFTNYWIGWVKQRPGHGLEWIGDIHPGGSYTNYNENFKGKATFTADTSSSTTYMQLSSLTSEDSAIYFCTSRNFAKWGQGTPVTVSS
VL: DIVLTQSQKFMSTSVGDRVSVTCKASQNVGTNVAWYQQKPGQSPKALIYSASYRYSGVPDRFTGSGSGTDFTLTISNVQSEDLAEYFCQQYNSYPYTFGGGTKLEIK
notes: also called AH4523
B19: AH04525 (human IgG1 reformatted) (antibody, V domains shown)
VH: QVQLQQSGAELVRPGTSVKMSCKAAGYTFTNYWIGWIKQRPGHGLEWIGDIHPGGDYTNYNEKFKGKATLTADTFSSTAYMQLSSLTSEDSAIYYCTGRNFAYWGQGTLVTVSS
VL: DNVLTQSQKFMSTSVGDRVSVTCKASQNVGTNVAWYQQKPGQSPKALIYSASYRYSGVPDRFTGSGSGTDFTLTISNVQSEDLAEYFCQQYNSYPYTFGGGTKLEMK
notes: also called AH4525
B20: AH04526 (human IgG1 reformatted) (antibody, V domains shown)
VH: QVQLQQSGAELVRPGTSVKMSCKAAGYTFTNYWIGWVKQRPGHGLEWIGDIHPGGDYSNYNEKFKGKATLTADTSSSTAYMNLSSLTSEDSAIYYCTSRNFAYWGQGTPVTVSS
VL: DTTVTQSQKFMSTSVGDRVSVTCKASQNVGTNVAWYQQKPGQSPKALIYSASYRYSGVPDRFTGSGSGTDFTLTISNVQSEDLAEYFCQQYNSYPYTFGGGTKLEMK
B21: AH04527 (human IgG1 reformatted) (antibody, V domains shown)
VH: QVQLQQSGAELVRPGTSVKMSCKAAGYTFTNYWIGWVKQRPGHGLEWIGDIHPGGGYIDYNEKFTGKATLTADTSSSTAYMQLSSLTSEDSAIYYCVSRNFAKWGQGTLVTVSA
VL: DVVMTQSQKFMSTSVGDRVSVTCKASQNVGTNVAWYQQKPGQSPKALIYSASYRYSGVPDRFTGSGSGTDFTLTISNVQSEDLAEYFCQQYNSYPYTFGGGTKLEIK

Molecular target: T1, CD25 on CD25+ cells (SUDHL-1, HEK IL-2 …)
Test: flow cytometry, dose response on CD25+ SUDHL-1 cells;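 note: antibody binding to cells read as median fluorescence intensity of an AF647 anti-human Fc secondary, DAPI+ dead cells excluded, 20 min on ice, 5-fold dilutions from 10 ug/mL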
Method: For each cell line, 100,000 cells were plated in a 96 well round bottom plate in cell buffer (PBS+2% HI FBS) and centrifuged. Antibody concentrations from 1-10 ug/mL were used to test the binding of each antibody. Cell were resuspended in 100 uL of antibodies/well and incubated for 20 minutes on ice. After incubation, cells were centrifuged at 300×g for 5 minutes at room temperature, and resuspended and washed with ice cold cell buffer. Cells were then stained with an anti-human Fc secondary antibody conjugated to AF647 (Biolegend) and incubated on ice for 20 min in the dark. Cells were centrifuged, washed and resuspended in cold cell buffer with DAPI and analyzed using flow cytometry (Cytoflex, Becton Dickinson). DAPI+ cell were excluded from analysis. The mean fluorescence intensity was calculated using the median (FlowJo, TreeStar).

Point of comparison: B19, EC50 0.109 µg/mL. Against it:
- B1 — within 1.5-fold, 0.121 µg/mL
- B2 — 14-fold higher, 1.49 µg/mL
- B3 — 5.5-fold higher, 0.603 µg/mL
- B4 — 2.1-fold higher, 0.228 µg/mL
- B5 — 2.7-fold higher, 0.294 µg/mL
- B6 — 1.5-fold higher, 0.165 µg/mL
- B7 — within 1.5-fold, 0.0957 µg/mL
- B8 — 1.5-fold lower, 0.0715 µg/mL
- B9 — within 1.5-fold, 0.116 µg/mL
- B10 — within 1.5-fold, 0.159 µg/mL
- B11 — the same, 0.109 µg/mL
- B12 — within 1.5-fold, 0.145 µg/mL
- B13 — within 1.5-fold, 0.106 µg/mL
- B14 — within 1.5-fold, 0.089 µg/mL
- B15 — within 1.5-fold, 0.108 µg/mL
- B16 — within 1.5-fold, 0.114 µg/mL
- B17 — within 1.5-fold, 0.11 µg/mL
- B18 — within 1.5-fold, 0.108 µg/mL
- B20 — 1.5-fold higher, 0.164 µg/mL
- B21 — within 1.5-fold, 0.0959 µg/mL
